Key:
Assay in all cases: native gel or EMSA; binding titrations of 80N0 nucleosomes with Chd1 in the presence of AMP-PNP and salmon sperm competitor DNA; observed (apparent) Kd; read from gels (Supplementary Figure S6)
[1] = molecular target: 80N0 Widom 601 nucleosome with 2 bp DNA mismatches at both SHL2.7 sites (SHL+/-2.7, 27 bp from the dyad), Xenopus laevis histone octamer with H2B(S53C) (Xenopus laevis)
[2] = molecular target: 80N0 Widom 601 nucleosome with pairs of abasic sites at both SHL2.7 sites (SHL+/-2.7, 27 bp from the dyad), Xenopus laevis histone octamer with H2B(S53C) (Xenopus laevis)
[3] = molecular target: 80N0 Widom 601 nucleosome with 2 bp DNA mismatches at both SHL2 sites (SHL+/-2, 20 bp from the dyad), Xenopus laevis histone octamer with H2B(S53C) (Xenopus laevis)
[4] = molecular target: 80N0 Widom 601 nucleosome with pairs of abasic sites at both SHL2 sites (SHL+/-2, 20 bp from the dyad), Xenopus laevis histone octamer with H2B(S53C) (Xenopus laevis)
[5] = molecular target: 80N0 nucleosome, canonical Widom 601 DNA, Xenopus laevis histone octamer with H2B(S53C) (Xenopus laevis)

Question: “Chd1 chromatin remodeler (from UniProt P32657 1-1468) (enzyme)” was tested. Which Kd [1] did it give?
Answer: The Kd was 22.2 nM.

Question: What about the Kd [2] of the same substance?
Answer: The Kd was 68 nM.

Question: And the Kd [3]?
Answer: Its Kd is 450 nM.

Question: What about the Kd [4] of the same substance?
Answer: Its Kd is 10000 nM.

Question: What about the Kd [5] of the same substance?
Answer: Its Kd is 24 nM.

— PMC10602870
